# B1: NT5M (hdNT-2): human mitochondrial 5′-nucleotidase (SEQ ID NO: 32) (protein)
# chain: MGGRALRVLVDMDGVLADFEGGFLRKFRARFPDQPFIALEDRRGFWVSEQYGRLRPGLSEKAISIWESKNFFFELEPLPGAVEAVKEMASLQNTDVFICTSPIKMFKYCPYEKYAWVEKYFGPDFLEQIVLTRDKTVVSADLLIDDRPDITGAEPTPSWEHVLFTACHNQHLQLQPPRRRLHSWADDWKAILDSKRPC
# modifications: NT5M
# B2: hdNT-1: Human cytosolic 5′deoxyribonucleotidase (protein, UniProt Q8TCD5 1-201, looked up)
# 5'(3')-deoxyribonucleotidase, …: MARSVRVLVDMDGVLADFEAGLLRGFRRRFPEEPHVPLEQRRGFLAREQYRALRPDLADKVASVYEAPGFFLDLEPIPGALDAVREMNDLPDTQVFICTSPLLKYHHCVGEKYRWVEQHLGPQFVERIILTRDKTVVLGDLLIDDKDTVRGQEETPSWEHILFTCCHNRHLVLPPTRRRLLSWSDNWREILDSKRGAAQRE
# B3: SV4: binder of SEQ ID NO: 2; SV1 with lysines at the 11th and 104th positions substituted with leucine (protein)
# chain: MEEELQIIQPDLSVSVAAGESAILHCTITSLFPVGPIQWFRGAGPARVLIYNQRQGPFPRVTTVSETTKRENMDFSISISNITPADAGTYYCIKFRKGSPDTEFLSGAGTELSVRAKPS
# modifications: CD47 binder SV4
# B4: SV4-DSPE: DSPE-conjugated form of SV4 (NHS-activated DSPE-PEG2000 with SV4 protein) (conjugate)
# chain: B3 chain
# B5: T001: Thymidylate 5′-phosphohydrolase derived from bacteriophage PBS2, gene sequence optimized (SEQ ID NO: 3); final drug form mRNA (protein)
# chain: MVFSIKEPFSIVTDCDEVLTDISPLWVHKIQQNADYFGKYFDLSKLEGLEFGTFEHYQTVLSRPEFHLNKWLRKENLVLSDEEEKELFERFYSLYDNDEFYEDCMPTKMCEGIYKLSLQKFVDKIYVVTRTSEGTKEGKRKFIETFLNSNKVEIIFVGKNEKKSDYIKNLKNVKMIVEDELSNINDIVENCNDGFEEVDTYIPSTGYNNKDIDGFNENLMKKGFNAVPYVIIERPETEEKAV
# modifications: T001
# notes: final drug form mRNA
# B6: mdNT-1: Murine cytosolic 5′deoxyribnucleotidase (protein, UniProt Q9JM14 1-200, looked up)
# 5'(3')-deoxyribonucleotidase, …: MAVKRPVRVLVDMDGVLADFESGLLQGFRRRFPEEPHVPLEQRRGFLANEQYGALRPDLAEKVASVYESPGFFLNLEPIPGALDALREMNDMKDTEVFICTTPLLKYDHCVGEKYRWVEQNLGPEFVERIILTRDKTVVMGDLLIDDKDNIQGLEETPSWEHILFTCCHNQHLALPPTRRRLLSWSDNWRGIIESKRASL
# What was measured:
# dTMP [1] = assay: 5′-nucleotidase preferred substrate Km, dTMP; type: biochemical; settings: according to Table 4
# dTMP [2] = settings: read-out: Preferred Substrate (Km), dTMP; cited from earlier work
# dGMP = settings: read-out: Preferred Substrate (Km), dGMP; cited from earlier work
# dUMP = settings: read-out: Preferred Substrate (Km), dUMP; cited from earlier work
# dAMP = settings: read-out: Preferred Substrate (Km), dAMP; cited from earlier work
# recombinant CD47 protein = recombinant CD47 protein (Homo sapiens, UniProt Q08722); assay: SPR, CD47 conjugated to CM5 chip by EDC-NHS; type: binding
# Method: Specifically, the recombinant CD47 protein was conjugated to the surface of the CM5 chip by a target SPR reaction of 250 RU through an EDC-NHS reaction to be used, and for HBS-P, the sensogram obtained through a process of association for 3 minutes and dissociation for 10 minutes at a flow rate of 30 µL/minutes was analyzed with the BiaEvaluation software using a 1:1 binding model and global fitting.
# [3] = system: colon cancer cell line HCT-116; assay: Trypan blue assay, cell viability and cell growth inhibition; type: cell-based; settings: HCT-116, 1.25 µg mRNA, 24 hours
# Method: T001 is more specific to the nucleic acid T due to its structural difference from NT5M. Therefore, nucleic acid imbalance due to the loss of dTTP rather than the overall loss of nucleic acid may have a greater effect on cancer cell metabolism and thereby inhibit the growth of cancer cells. […] Each mRNA was transfected into the colon cancer cell line HCT-116, and 24 hours thereafter, Trypan blue assay was performed and the results of cell viability and cell growth inhibition on HCT-116 are shown in FIG. 13. The specific experimental method is as follows.
# HCT-116 cells were transfected with 1.25 µg each of non-mature form NT5M, mature form NT5M, and CT mRNA. After 24 hours, the resultants were each treated with trypsin and the cells were harvested using a centrifuge. After resuspending the harvested cells with 1× DPBS, a certain amount of cells were mixed with trypan blue reagent at a 1:1 ratio. After incubation for 2 minutes at room temperature (RT), the number of cells was counted using a hemocytometer. After obtaining the number of cells stained and unstained with the trypan blue reagent, the number of viable and non-viable cells was obtained, and then divided by the total number of cells to obtain the viability. Each experiment was repeated three or more times to evaluate the significance.
# [4] = CM5 chip, CD47 250 RU, 30 µL/minutes
# Sequence of recombinant CD47 protein (Q08722 19-323): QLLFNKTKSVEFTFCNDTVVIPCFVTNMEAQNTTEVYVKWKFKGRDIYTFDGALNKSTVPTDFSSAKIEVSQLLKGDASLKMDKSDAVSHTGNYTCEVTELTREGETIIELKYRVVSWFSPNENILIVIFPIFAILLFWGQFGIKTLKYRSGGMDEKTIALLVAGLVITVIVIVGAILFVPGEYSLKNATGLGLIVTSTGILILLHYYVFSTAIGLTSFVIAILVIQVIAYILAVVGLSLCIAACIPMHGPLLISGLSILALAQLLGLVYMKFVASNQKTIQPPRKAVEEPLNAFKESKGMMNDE
Molecule,affinity for dTMP lower than T001 (dTMP [1]),Km (dTMP [2]),Km (dGMP),Km (dUMP),Km (dAMP),binding activity when conjugated with DSPE and when inserted into liposomes (recombinant CD47 protein),ka (recombinant CD47 protein; [4]),kd (recombinant CD47 protein; [4]),effect on cells (cell viability and cell growth inhibition) [3]
B1,30 times,300 µM,90 µM,160 µM,,,,,
B2,,1500 µM,3300 µM,1500 µM,3000 µM,,,,
B3,,,,,,maintained within the error range,164000 M⁻¹ s⁻¹,0.000275 s⁻¹,
B4,,,,,,,,0.000256 s⁻¹,
B5,,10 µM,700 µM,800 µM,,,,,greater than that of human NT5M
B6,,1400 µM,1200 µM,800 µM,1000 µM,,,,
